The target of test [1] is T1, E. coli alkaline phosphatase Strep-tag®II fusion protein (E. coli, UniProt P00634 22-471 = phosphatase).
T1 construct: mature; also called BAP-StrepII; BAP-StrepIII
Nature of the test: ELISA, mutein coated, BAP-StrepII titrated. In general terms: ELISA stands for enzyme-linked immunosorbent assay.

Test [2] has as its target T2, cytochrome b562 with C-terminally fused Strep-tagII (E. coli).
T2 construct: also called Cytb562-StrepII; Cytb562-StrepIII
Nature of the test: affinity chromatography, retention after overload; tied to m45 by Table 9 (308 % against 11 %).

In test [3] the target is T2, cytochrome b562 with C-terminally fused …. Nature of the test: affinity chromatography, overloaded Sepharose column, washed, biotin elution.
Test [4] has the same target. Nature of the test: affinity chromatography, capture from dilute solution (500 µg applied, 1 mg mutein).
Test [5] has as its target T3, Green Fluorescent Protein with C-terminal Strep-tagII (Aequorea victoria (Water jellyfish) …, UniProt P42212 1-237 = GFP, limits assumed).
T3 construct: also called GFP-StrepII; GFP-StrepIII
As to the kind of experiment: SPR Biacore. Here is the method: (§1) The resulting relative immobilized amounts are given in RU (arbitrary units) (column 3). To achieve the low density immobilization both muteins were applied applied at a concentration of 1 μg/ml and a flow rate of 10 μl/min. To achieve the immobilization at higher density, mutein m1-9 was used at a concentration of 20 μg/ml and mutein “1” was used at a concentration of 50 μg/ml. […] Prior to analysis, the fusion protein preparations were dialyzed against Buffer W (100 mM Tris-CI pH8, 150 mM NaCl, 1 mM EDTA), and checked via analytical size exclusion chromatography to be essentially free of aggregates (a content of max. 5% was accepted, in most cases it was below 1%) to ensure to measure the interaction of monovalent fusion proteins with immobilized streptavidin muteins only.
Background: SPR reads the build-up and loss of mass on a sensor chip optically.

For test [6], the target named is T2, cytochrome b562 with C-terminally fused …. As to the kind of experiment: SPR Biacore. Here is the method: as §1
Test [7] has as its target T3, Green Fluorescent Protein with …. Nature of the test: SPR Biacore T100, mutein immobilised at 4350 RU, 1:1 global fit. The method, then: (§2) To achieve the immobilization at higher density, mutein m1-9 was used at a concentration of 20 μg/ml and mutein “1” was used at a concentration of 50 μg/ml. […] Prior to analysis, the fusion protein preparations were dialyzed against Buffer W (100 mM Tris-CI pH8, 150 mM NaCl, 1 mM EDTA), and checked via analytical size exclusion chromatography to be essentially free of aggregates (a content of max. 5% was accepted, in most cases it was below 1%) to ensure to measure the interaction of monovalent fusion proteins with immobilized streptavidin muteins only. […] Data were fitted using the kinetic global fit (Langmuir 1:1) and resulting on- and off-rates and deduced dissociation constants are shown in column 4, column 5 and column 6, respectively. BiaCore data were measured by Biaffin GmbH & Co KG, Kassel, Germany.

The target in test [8] is T4, Green Fluorescent Protein with C-terminal di-tag3.
T4 construct: also called GFP-di-tag3
Described as above. The method, then:
as §2

The target in test [9] is T2, cytochrome b562 with C-terminally fused …. Described as above. Here is the method:
as §2

Test [10] addresses T5, cytochrome b562 with C-terminal di-tag3 (E. coli).
T5 construct: also called Cytb562-di-tag3
The test is described as above. The method, then: as §2

For test [11], the target named is T3, Green Fluorescent Protein with …. As to the kind of experiment: SPR Biacore T100, mutein immobilised at 170 RU, 1:1 global fit. The method, then: as §2
For test [12], the target named is T4, Green Fluorescent Protein with …. Described as above. The method, then:
as §2

Test [13] addresses T2, cytochrome b562 with C-terminally fused …. Described as above. The method, then:
as §2

Test [14] concerns the target T5, cytochrome b562 with C-terminal di-tag3. The description is as above. The method, then: as §2
Test [15] has as its target T1, E. coli alkaline phosphatase …. As to the kind of experiment: ELISA, second experiment, mutein coated, BAP-StrepII titrated.

Where a chain is given by its changes, count along the chain named.

B1: mutein“1”-m45 (designed binder)
chain: EAGITGTWYNQLGSTFIVTAGADGALTGTYVTARGNAESRYVLTGRYDSAPATDGSGTALGWTVAWKNNYRNAHSATTWSGQYVGGAEARINTQWLLTSGTTEYNAGFSTLVGHDTFTKVKPSAAS
notes: Library 3 clone on mutein “1”
A word on the Kd: it is a measure of binding affinity in units of concentration. A lower Kd goes with higher affinity. For B1, in test [1], the “(Δ(A405-A595)/Δt)max” value came out at 566 mOD, the “KD(mutein“1”)/KDmutein” value came out at 6.1 and the Kd worked out at 18 nM. Besides, the “retained Cytb562-StrepII relative to wt streptavidin” value in test [2] was 28 fold. Moreover, in test [3], the “Retained Cytb562-StrepII” value turned out to be 472 µg, the “Retained Cytb562-StrepII per immobilized mutein” value was 0.39 µg/µg and the “Retained Cytb562-StrepII per immobilized mutein relative to mutein “1”” value is 308%. Also, the “yield of Cytb562-StrepII applied” value in test [4] was determined as 67%.

B2: mutein m1-9 (designed binder)
chain: B1 chain with Y104E, F108Y
Broadly, the koff is the rate constant with which the complex falls apart. Low values mean a long-lived complex, high ones a short-lived complex. The kon is a measure of how fast the partners come together. In the case of B2, the “affinity increase relative to mutein “1”” value in test [5] is roughly 10 fold; in test [6], roughly 30 fold. Also, the dissociation constant (Kd) in test [7] was determined as 23 nM; in test [8] it was 0.079 nM; in test [9], 485 nM; in [10] it was 0.043 nM; in test [11], 32 nM; in [12] it was 0.053 nM. The dissociation constant (Kd) in [13] turned out to be 586 nM; in [14], 0.014 nM; in test [15], 25 nM. Besides, the off-rate (koff) in test [7] worked out at 0.0038 s⁻¹; in [8] it was 1.7e-05 s⁻¹; in [9], 0.025 s⁻¹; in [10] it was 1.9e-05 s⁻¹; in test [11], 0.0047 s⁻¹; in test [12], 1.5e-05 s⁻¹. Also, the results for the dissociation rate constant (koff) in test [13] and in test [14] were 0.041 s⁻¹ and 1.5e-05 s⁻¹, respectively. Also, the kon in test [7] came to 170000 M⁻¹ s⁻¹; in test [8], 220000 M⁻¹ s⁻¹; in [9] it was 52000 M⁻¹ s⁻¹; in [10], 440000 M⁻¹ s⁻¹; in test [11], 150000 M⁻¹ s⁻¹; in [12], 280000 M⁻¹ s⁻¹. For the same molecule, the figures for the on-rate (kon) in test [13] and in [14] were 70000 M⁻¹ s⁻¹ and 1e+06 M⁻¹ s⁻¹, respectively. In addition, in test [15], the “(Δ(A405-A595)/Δt)max” value came out at 1700 mOD.

For the origin of these results see patent US20210139545A1 (IBA, published 2021).
